# Source: patent US20100285016A1 (Genentech, published 2010)
# T1: PRO34128-Fc fusion protein (human, UniProt Q6UXV0 19-351, limits assumed)
# T1 construct: Used as conditioned medium; not shown: Fc portion
# T1 sequence: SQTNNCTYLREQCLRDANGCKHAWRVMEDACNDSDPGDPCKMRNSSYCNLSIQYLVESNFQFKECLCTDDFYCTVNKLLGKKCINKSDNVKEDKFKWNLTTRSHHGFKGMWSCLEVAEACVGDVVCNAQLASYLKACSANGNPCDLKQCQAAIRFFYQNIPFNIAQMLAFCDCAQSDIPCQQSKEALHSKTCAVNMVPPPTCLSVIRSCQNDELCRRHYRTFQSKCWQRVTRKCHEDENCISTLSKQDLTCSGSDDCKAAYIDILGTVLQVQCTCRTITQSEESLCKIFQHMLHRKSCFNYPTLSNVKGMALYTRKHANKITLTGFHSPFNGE
# B1: C-terminally FLAG-tagged NRTN (ligand, UniProt Q99748 96-197, looked up)
# chain: ARLGARPCGLRELEVRVSELGLGYASDETVLFRYCAGACEAAARVYDLGLRRLRQRRRLRRERVRAQPCCRPTAYEDEVSFLDAHSRYHTVHELSARECACV
# notes: Produced in 293T cells and used as conditioned medium; also called neurturin; not shown: C-terminal FLAG tag
# B2: C-terminally FLAG-tagged ARTN (ligand, UniProt Q5T4W7 108-220, looked up)
# chain: AGGPGSRARAAGARGCRLRSQLVPVRALGLGHRSDELVRFRFCSGSCRRARSPHDLSLASLLGAGALRPPPGSRPVSQPCCRPTRYEAVSFMDVNSTWRTVDRLSATACGCLG
# notes: Produced in 293T cells and used as conditioned medium; not shown: C-terminal FLAG tag
# B3: C-terminally FLAG-tagged PSPN (ligand, UniProt O60542 61-156, looked up)
# chain: ALSGPCQLWSLTLSVAELGLGYASEEKVIFRYCAGSCPRGARTQHGLALARLQGQGRAHGGPCCRPTRYTDVAFLDDRHRWQRLPQLSAAACGCGG
# notes: as for B2
# Target: T1, PRO34128-Fc fusion protein
# Test: co-immunoprecipitation with protein-A beads from mixed conditioned media, anti-FLAG western blot
# Method: GFR1-Fc, GFR2-Fc, GFR3-Fc, GFR4-Fc and PRO34128-Fc fusion proteins were produced by transfecting appropriate expression constructs using Fugene6™ (Roche Biosciences). C-terminally FLAG-tagged GDNF, NRTN, ARTN, PSPN and LEFTY-B were also produced in 293T cells by transfecting the appropriate expression construct in 293T cells using Fugene6™. All expression constructs are under CMV promoter control. The conditioned media were collected 48 hours post transfection and appropriate Fc fusion proteins (as indicated in the FIG. 6A) were mixed with the ligands and the interacting complexes were immunoprecipitated using protein-A beads (Sigma). Immunoprecipiated proteins were resolved on a SDS-PAGE and detected by western blotting. The co-precipitating FLAG-tagged proteins were detected using an anti-FLAG antibody (Sigma) at a final concentration of 1 μg/ml, HRP-conjugated anti-mouse antibody (ICN Biosciences) and a chemiluminescent substrate (Amersham).
row,binding result,Binder
1,no binding,B1
2,no binding,B2
3,no binding,B3
